# Measured values: patent publication US20220363770A1 (Amgen, published 2022)
# T1: human PAC1 receptor (human, UniProt P41586 24-468)
# T1 sequence: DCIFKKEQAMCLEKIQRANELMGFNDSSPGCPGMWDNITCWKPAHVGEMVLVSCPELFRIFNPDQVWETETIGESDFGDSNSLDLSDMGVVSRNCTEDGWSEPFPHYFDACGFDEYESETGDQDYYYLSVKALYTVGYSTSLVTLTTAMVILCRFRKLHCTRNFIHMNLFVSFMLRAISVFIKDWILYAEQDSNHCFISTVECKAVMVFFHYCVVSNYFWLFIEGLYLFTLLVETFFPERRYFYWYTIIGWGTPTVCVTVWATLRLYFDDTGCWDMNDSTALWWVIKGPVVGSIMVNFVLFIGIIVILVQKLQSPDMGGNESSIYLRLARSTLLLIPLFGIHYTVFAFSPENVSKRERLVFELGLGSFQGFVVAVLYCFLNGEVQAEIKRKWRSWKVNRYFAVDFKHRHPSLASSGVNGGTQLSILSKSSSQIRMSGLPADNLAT
# B1: iPS:454847 (bispecific antibody, human IgG1, kappa, lambda, N297G)
# light 1: QSVLTQPPSVSAAPGQKVTISCSGSRSNIGIKAVSWYQQLPGTAPKLLIYDNNKRPSGIPDRFSGSKSGTSATLGITGLQTGDEADYYCGTWDSRLSAVVFGGGTKLTVLGQPKAAPSVTLFPPSSEELQANKATLVCLISDFYPGAVTVAWKADSSPVKAGVETTTPSKQSNNKYAAKSYLSLTPEQWKSHRSYSCQVTHEGSTVEKTVAPTECS
# heavy 1: QVQLVESGGGVVQPGRSLRLSCAASGFTFSSFGMHWVRQAPGKGLEWVAVISFDGSIKYSVDSVKGRFTISRDNSKNTLFLQMNSLRAEDTAVYYCARDRLNYYESSGYYHYKYYGMAVWGQGTTVTVSSASTKGPSVFPLAPSSKSTSGGTAALGCLVKDYFPEPVTVSWNSGALTSGVHTFPAVLQSSGLYSLESVVTVPSSSLGTQTYICNVNHKPSNTKVDKKVEPKSCDKTHTCPPCPAPELLGGPSVFLFPPKPKDTLMISRTPEVTCVVVDVSHEDPEVKFNWYVDGVEVHNAKTKPCEEQYGSTYRCVSVLTVLHQDWLNGKEYKCKVSNKALPAPIEKTISKAKGQPREPQVYTLPPSRKKMTKNQVSLTCLVKGFYPSDIAVEWESNGQPENNYKTTPPVLKSDGSFFLYSKLTVDKSRWQQGNVFSCSVMHEALHNHYTQKSLSLSPGK
# light 2: EIVLTQSPATLSLSPGERATLSCRASKSVGWSLHWYQQKPGQAPRLLIKYASQSLSGIPARFSGSGSGTDFTLTISSLEPEDFAVYYCHQSSRLPFTFGPGTKVDIKRTVAAPSVFIFPPSDEQLKSGTASVVCLLNNFYPREAKVQWKVDNALQSGNSQESVTEQDSKDSTYSLESTLTLSKADYEKHKVYACEVTHQGLSSPVTKSFNRGEC
# heavy 2: not shown
# B2: iPS:454849 (bispecific antibody, human IgG1, kappa, lambda, N297G)
# light 1: QSVLTQPPSVSAAPGQKVTISCSGSRSNIGIKAVSWYQQLPGTAPKLLIYDNNKRPSGIPDRFSGSKSGTSATLGITGLQTGDEADYYCGTWDSRLSAVVFGGGTKLTVLGQPKAAPSVTLFPPSSEELQANKATLVCLISDFYPGAVTVAWKADSSPVKAGVETTTPSKQSNNKYAAKSYLSLTPEQWKSHRSYSCQVTHEGSTVEKTVAPTECS
# heavy 1: QVQLVESGGGVVQPGRSLRLSCAASGFTFSSFGMHWVRQAPGKGLEWVAVISFDGSIKYSVDSVKGRFTISRDNSKNTLFLQMNSLRAEDTAVYYCARDRLNYYESSGYYHYKYYGMAVWGQGTTVTVSSASTKGPSVFPLAPSSKSTSGGTAALGCLVKDYFPEPVTVSWNSGALTSGVHTFPAVLQSSGLYSLESVVTVPSSSLGTQTYICNVNHKPSNTKVDKKVEPKSCDKTHTCPPCPAPELLGGPSVFLFPPKPKDTLMISRTPEVTCVVVDVSHEDPEVKFNWYVDGVEVHNAKTKPCEEQYGSTYRCVSVLTVLHQDWLNGKEYKCKVSNKALPAPIEKTISKAKGQPREPQVYTLPPSRKKMTKNQVSLTCLVKGFYPSDIAVEWESNGQPENNYKTTPPVLKSDGSFFLYSKLTVDKSRWQQGNVFSCSVMHEALHNHYTQKSLSLSPGK
# light 2: EIVLTQSPATLSLSPGERATLSCRASKSVGWSLHWYQQKPGQAPRLLIKYASQSLSGIPARFSGSGSGTDFTLTISSLEPEDFAVYYCHQSSRLPFTFGPGTKVDIKRTVAAPSVFIFPPSDEQLKSGTASVVCLLNNFYPREAKVQWKVDNALQSGNSQESVTEQDSKDSTYSLESTLTLSKADYEKHKVYACEVTHQGLSSPVTKSFNRGEC
# heavy 2: not shown
# B3: iPS:454851 (bispecific antibody, human IgG1, kappa, lambda, N297G)
# light 1: QSVLTQPPSVSAAPGQKVTISCSGSRSNIGIKAVSWYQQLPGTAPKLLIYDNNKRPSGIPDRFSGSKSGTSATLGITGLQTGDEADYYCGTWDSRLSAVVFGGGTKLTVLGQPKAAPSVTLFPPSSEELQANKATLVCLISDFYPGAVTVAWKADSSPVKAGVETTTPSKQSNNKYAAKSYLSLTPEQWKSHRSYSCQVTHEGSTVEKTVAPTECS
# heavy 1: QVQLVESGGGVVQPGRSLRLSCAASGFTFSSFGMHWVRQAPGKGLEWVAVISFDGSIKYSVDSVKGRFTISRDNSKNTLFLQMNSLRAEDTAVYYCARDRLNYYESSGYYHYKYYGMAVWGQGTTVTVSSASTKGPSVFPLAPSSKSTSGGTAALGCLVKDYFPEPVTVSWNSGALTSGVHTFPAVLQSSGLYSLESVVTVPSSSLGTQTYICNVNHKPSNTKVDKKVEPKSCDKTHTCPPCPAPELLGGPSVFLFPPKPKDTLMISRTPEVTCVVVDVSHEDPEVKFNWYVDGVEVHNAKTKPCEEQYGSTYRCVSVLTVLHQDWLNGKEYKCKVSNKALPAPIEKTISKAKGQPREPQVYTLPPSRKKMTKNQVSLTCLVKGFYPSDIAVEWESNGQPENNYKTTPPVLKSDGSFFLYSKLTVDKSRWQQGNVFSCSVMHEALHNHYTQKSLSLSPGK
# light 2: EIVLTQSPATLSLSPGERATLSCRASKSVGWSLHWYQQKPGQAPRLLIKYASQSLSGIPARFSGSGSGTDFTLTISSLEPEDFAVYYCHQSSRLPFTFGPGTKVDIKRTVAAPSVFIFPPSDEQLKSGTASVVCLLNNFYPREAKVQWKVDNALQSGNSQESVTEQDSKDSTYSLESTLTLSKADYEKHKVYACEVTHQGLSSPVTKSFNRGEC
# heavy 2: not shown
# B4: iPS:454855 (bispecific antibody, human IgG1, kappa, lambda, N297G)
# light 1: QSVLTQPPSVSAAPGQKVTISCSGSRSNIGIKAVSWYQQLPGTAPKLLIYDNNKRPSGIPDRFSGSKSGTSATLGITGLQTGDEADYYCGTWDSRLSAVVFGGGTKLTVLGQPKAAPSVTLFPPSSEELQANKATLVCLISDFYPGAVTVAWKADSSPVKAGVETTTPSKQSNNKYAAKSYLSLTPEQWKSHRSYSCQVTHEGSTVEKTVAPTECS
# heavy 1: QVQLVESGGGVVQPGRSLRLSCAASGFTFSSFGMHWVRQAPGKGLEWVAVISFDGSIKYSVDSVKGRFTISRDNSKNTLFLQMNSLRAEDTAVYYCARDRLNYYESSGYYHYKYYGMAVWGQGTTVTVSSASTKGPSVFPLAPSSKSTSGGTAALGCLVKDYFPEPVTVSWNSGALTSGVHTFPAVLQSSGLYSLESVVTVPSSSLGTQTYICNVNHKPSNTKVDKKVEPKSCDKTHTCPPCPAPELLGGPSVFLFPPKPKDTLMISRTPEVTCVVVDVSHEDPEVKFNWYVDGVEVHNAKTKPCEEQYGSTYRCVSVLTVLHQDWLNGKEYKCKVSNKALPAPIEKTISKAKGQPREPQVYTLPPSRKKMTKNQVSLTCLVKGFYPSDIAVEWESNGQPENNYKTTPPVLKSDGSFFLYSKLTVDKSRWQQGNVFSCSVMHEALHNHYTQKSLSLSPGK
# light 2: EIVLTQSPATLSLSPGERATLSCRASKSVGYSLHWYQQKPGQAPRLLIKYASQSLSGIPARFSGSGSGTDFTLTISSLEPEDFAVYYCHQSSRLPFTFGPGTKVDIKRTVAAPSVFIFPPSDEQLKSGTASVVCLLNNFYPREAKVQWKVDNALQSGNSQESVTEQDSKDSTYSLESTLTLSKADYEKHKVYACEVTHQGLSSPVTKSFNRGEC
# heavy 2: not shown
# B5: iPS:454853 (bispecific antibody, human IgG1, kappa, lambda, N297G)
# light 1: QSVLTQPPSVSAAPGQKVTISCSGSRSNIGIKAVSWYQQLPGTAPKLLIYDNNKRPSGIPDRFSGSKSGTSATLGITGLQTGDEADYYCGTWDSRLSAVVFGGGTKLTVLGQPKAAPSVTLFPPSSEELQANKATLVCLISDFYPGAVTVAWKADSSPVKAGVETTTPSKQSNNKYAAKSYLSLTPEQWKSHRSYSCQVTHEGSTVEKTVAPTECS
# heavy 1: QVQLVESGGGVVQPGRSLRLSCAASGFTFSSFGMHWVRQAPGKGLEWVAVISFDGSIKYSVDSVKGRFTISRDNSKNTLFLQMNSLRAEDTAVYYCARDRLNYYESSGYYHYKYYGMAVWGQGTTVTVSSASTKGPSVFPLAPSSKSTSGGTAALGCLVKDYFPEPVTVSWNSGALTSGVHTFPAVLQSSGLYSLESVVTVPSSSLGTQTYICNVNHKPSNTKVDKKVEPKSCDKTHTCPPCPAPELLGGPSVFLFPPKPKDTLMISRTPEVTCVVVDVSHEDPEVKFNWYVDGVEVHNAKTKPCEEQYGSTYRCVSVLTVLHQDWLNGKEYKCKVSNKALPAPIEKTISKAKGQPREPQVYTLPPSRKKMTKNQVSLTCLVKGFYPSDIAVEWESNGQPENNYKTTPPVLKSDGSFFLYSKLTVDKSRWQQGNVFSCSVMHEALHNHYTQKSLSLSPGK
# light 2: EIVLTQSPATLSLSPGERATLSCRASKSVGWSLHWYQQKPGQAPRLLIKYASQSLSGIPARFSGSGSGTDFTLTISSLEPEDFAVYYCHQSSRLPFTFGPGTKVDIKRTVAAPSVFIFPPSDEQLKSGTASVVCLLNNFYPREAKVQWKVDNALQSGNSQESVTEQDSKDSTYSLESTLTLSKADYEKHKVYACEVTHQGLSSPVTKSFNRGEC
# heavy 2: not shown
# Key:
# [1] = target: T1, human PAC1 receptor; experiment: cell-based or functional assay
# [2] = target: human CGRP receptor (human, UniProt Q16602 23-461; O60894 27-148); experiment: cell-based or functional assay
# Chain of human CGRP receptor (Q16602 23-461 limits assumed, chain 1 of 2): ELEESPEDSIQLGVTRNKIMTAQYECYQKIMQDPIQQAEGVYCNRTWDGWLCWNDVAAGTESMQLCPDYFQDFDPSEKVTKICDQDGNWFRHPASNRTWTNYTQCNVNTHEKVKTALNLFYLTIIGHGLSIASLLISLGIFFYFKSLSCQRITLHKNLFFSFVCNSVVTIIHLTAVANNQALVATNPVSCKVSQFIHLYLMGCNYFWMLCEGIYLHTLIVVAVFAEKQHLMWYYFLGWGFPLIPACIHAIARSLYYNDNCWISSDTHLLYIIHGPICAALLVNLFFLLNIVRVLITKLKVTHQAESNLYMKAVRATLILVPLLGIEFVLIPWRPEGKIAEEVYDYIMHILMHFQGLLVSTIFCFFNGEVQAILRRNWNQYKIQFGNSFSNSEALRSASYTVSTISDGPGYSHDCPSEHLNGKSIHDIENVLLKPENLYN
# Chain of human CGRP receptor (O60894 27-148 limits assumed, chain 2 of 2): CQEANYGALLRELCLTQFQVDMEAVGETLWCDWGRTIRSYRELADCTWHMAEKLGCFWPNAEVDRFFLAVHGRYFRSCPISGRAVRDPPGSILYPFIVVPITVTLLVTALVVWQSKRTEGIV
Binder,Fold-improvement over 29G4v22 Ab [1] [fold],IC50 [1] [nM],Fold-improvement over 4E4 Ab [2] [fold],IC50 [2] [nM]
B1,6.7,0.8,1.5,0.43
B2,3.6,1.48,1.2,0.55
B3,7.1,0.76,1.8,0.37
B4,6.6,0.81,1.4,0.46
B5,5.8,0.93,1.4,0.47
